The values below come from patent US9719067B2, “Generation of anterior foregut endoderm from pluripotent cells” (Mount Sinai School of Medicine, priority 2010, dated 2017).

Common to all, as to type: cell-based, human
Test [1] has as its system ventralized AFE. Nature of the test: Induction of lung and parathyroid markers from ventralized AFE. The method, then: (§1) Mouse embryonic fibroblasts were depleted by a 24 h passage on Ma gel (Gibco) with Y-27632 (10 μM), and embryoid bodies were formed on low-adherence dishes (Costar). During embryoid body formation and differentiation, HES2 cells were reseeded at the same concentration (1:1 dilution), whereas HDF2 and HDF9 required a higher seeding (2:1-4:1 concentration) for efficient endoderm generation. Differentiations were performed in a medium of DMEM/F12 (Invitrogen) supplemented with N2 (Gibco), B27 (Gibco), ascorbic acid (50 μg/ml, Sigma). Glutamax (2 mM, Invitrogen), monothioglycerol ([…], Sigma). The following concentrations of factors were used for primitive streak formation, endoderm induction, anterior/pharyngeal endoderm induction, and subsequent anterior posterior and dorsoventral patterning: human BMP-4, 1 ng/ml and 10 ng/ml; human bFGF, 2.5 ng/ml; human activin A, 100 ng/ml; human Noggin, 200 ng/ml; Y-27632, 1 μM; SB-431542, 10 μM; human FGF10, 10 ng/ml; human FGF7, 10 ng/ml; murine EGF 20 ng/ml; and human WNT3a, 100 ng/ml. Hepatic conditions were as previously described 2 and contain BMP-4, 50 ng/ml; bFGF, 10 ng/ml; VEGF, 10 ng/ml; HGF, 10 ng/ml; TGFα, 20 ng/ml; dexamethasone, 40 ng/ml. All factors were purchased from R&D systems, except SB-431542 and Y-27632, which are from Tocris, and dexamethasone (Sigma). […]
(§2) Total RNA was extracted using Trizol (Invitrogen), phase lock tubes (5′ Prime) and the RNeasy kit (Qiagen). […] Amplified material was detected using SybrGreen (Invitrogen). Real-time quantitative PCR was performed on ABI 7900HT thermocycler (Applied Biosystems), with a 10-min step at 95° C. followed by 40 cycles of 95° C. for 15 s and 60° C. for 1 min. All experiments were done in triplicate with SYBR GreenER quantitative PCR SuperMix (Invitrogen). […] Absolute quantification was obtained in relation to a standard curve of genomic DNA dilution series. Quantified values for the gene of interest were normalized against input determined by the housekeeping genes GAPDH and β-ACTIN, qPCR for each culture well was performed in triplicate.

The test system of test [2] is activin A-induced definitive endoderm (HES2). Kind of test: Anteriorization of activin A-induced definitive endoderm, factors added at day 5, marker mRNA by quantitative PCR at day 9. The method, then:
as §1
as §2, with “triplicate. […]” for “triplicate.”

Test [3] relates to hES cell line HES2. Kind of test: Activin A induction of definitive endoderm from hES cells (flow cytometry, cell number). The following applies: after 4 d of exposure to activin A. As for the experimental part:
hESC (HES2, National Institutes of Health code ES02 from ES Cell International; passages 25-33) were cultured on mouse embryonic fibroblasts plated at 8,000-12,000 cells/cm^2, A medium of DMEM/F12, 20% knockout serum replacement (Gibco), 0.1 mM β-mercaptoethanol (Sigma-Aldrich), and 20 ng/ml FGF-2 (R&D) was changed daily. Cells were passaged with trypsin, washed and replated at a dilution of 1:5 to 1:10. HDF2 and HDF9, hiPS cell lines, were cultured as hES2. hES and hiPS cultures were maintained in a 5% CO2/air environment, and hES differentiations were maintained in a 5% CO2/5% O2/90% N2 environment.
Mouse embryonic fibroblasts were depleted by a 24 h passage on Ma gel (Gibco) with Y-27632 (10 μM), and embryoid bodies were formed on low-adherence dishes (Costar). During embryoid body formation and differentiation, HES2 cells were reseeded at the same concentration (1:1 dilution), whereas HDF2 and HDF9 required a higher seeding (2:1-4:1 concentration) for efficient endoderm generation. Differentiations were performed in a medium of DMEM/F12 (Invitrogen) supplemented with N2 (Gibco), B27 (Gibco), ascorbic acid (50 μg/ml, Sigma). Glutamax (2 mM, Invitrogen), monothioglycerol (0.4 μM, Sigma). […]
Day 5 embryoid bodies or day 13 monolayer cultures were dissociated with trypsin/EDTA (2 min). […] Cells were analyzed on a LSRII. […]

Setting [4] is: retinoic acid added to the WKFBE cocktail.
[5] abbreviates: mRNA at day 9, factors added at day 5.

Regarding `CC1=C(/C=C/C(C)=C/C=C/C(C)=C/C(=O)O)C(C)(C)CCC1` [retinoic acid, all-trans retinoic acid], in test [1] (setting [4]), the “expression of FOXP2, NKX2.1, GATA6 and FOXJ1” value is “increased”; the “expression of the pharyngeal pouch marker PAX1” value is “decreased”.

B1: WNT3a: human WNT3a, agonist of canonical Wnt signaling; 100 ng/ml (protein, UniProt P56704 19-352, looked up)
Protein Wnt-3a: SYPIWWSLAVGPQYSSLGSQPILCASIPGLVPKQLRFCRNYVEIMPSVAEGIKIGIQECQHQFRGRRWNCTTVHDSLAIFGPVLDKATRESAFVHAIASAGVAFAVTRSCAEGTAAICGCSSRHQGSPGKGWKWGGCSEDIEFGGMVSREFADARENRPDARSAMNRHNNEAGRQAIASHMHLKCKCHGLSGSCEVKTCWWSQPDFRAIGDFLKDKYDSASEMVVEKHRESRGWVETLRPRYTYFKVPTERDLVYYEASPNFCEPNPETGSFGTRDRTCNVSSHGIDGCDLLCCGRGHNARAERRREKCRCVFHWCCYVSCQECTRVYDVHTCK
For B1, the CDX2 expression result in test [2] (setting [5]) was “increased”.

B2: activin A: human activin A, soluble cytokine activating the same receptor as nodal; 100 ng/ml (protein, UniProt P08476 311-426, looked up)
Inhibin beta A chain: GLECDGKVNICCKKQFFVSFKDIGWNDWIIAPSGYHANYCEGECPSHIAGTSGSSLSFHSTVINHYRMRGHSPFANLKSCCVPTKLRPMSMLYYDDGQNIIKKDIQNMIVEECGCS
modifications: Inhibin beta A chain
notes: 100 ng/ml
In the case of B2, in test [3], the “cells expressing the definitive endoderm markers CXCR4, c-KIT and EPCAM” value is on record as more than 95%.

B3: sFRP3: soluble Frizzled-related protein 3, WNT antagonist (protein, UniProt Q92765 33-325, looked up)
Secreted frizzled-related …: AACEPVRIPLCKSLPWNMTKMPNHLHHSTQANAILAIEQFEGLLGTHCSPDLLFFLCAMYAPICTIDFQHEPIKPCKSVCERARQGCEPILIKYRHSWPENLACEELPVYDRGVCISPEAIVTADGADFPMDSSNGNCRGASSERCKCKPIRATQKTYFRNNYNYVIRAKVKEIKTKCHDVTAVVEVKEILKSSLVNIPRDTVNLYTSSGCLCPPLNVNEEYIIMGYEDEERSRLLLVEGSIAEKWKDRLGKKVKRWDMKLRHLGLSKSDSSNSDSTQSQKSGRNSNPRQARN
For the molecule B3, the “induction of PAX9 and SOX2 when added to NOGGIN/SB-431542” value in test [2] (day 9, sFRP3 added with NOGGIN/SB-431542) is on record as “detrimental”. Besides, the SOX2 expression result in test [2] (setting [5]) is given as “not sufficient”.

B4: FGF8: fibroblast growth factor 8, agonist of FGF signaling (protein, UniProt P55075 23-233, looked up)
Fibroblast growth factor 8: QEGPGRGPALGRELASLFRAGREPQGVSQQHVREQSLVTDQLSRRLIRTYQLYSRTSGKHVQVLANKRINAMAEDGDPFAKLIVETDTFGSRVRVRGAETGLYICMNKKGKLIAKSNGKGKDCVFTEIVLENNYTALQNAKYEGWYMAFTRKGRPRKGSKTRQHQREVHFMKRLPRGHHTTEQSLRFEFLNYPPFTRSLRGSQRTWAPEPR
Regarding B4, in test [1] (AFE ventralized with WKFBE in the absence of retinoic acid), the “parathyroid-specific marker GCM2” value is recorded as “induced”.
